To fix the notation:
B1: 14H11 (antibody, V domains shown)
VH: QSLEESGGDLVKPGASLTLTCTASGFSFSSSYYMCWVRQAPGKGLEWIASIYAGSSGAPYYAGWAKGRFTISKTSSTAVTLQMSSLTAADTATYFCAREGFAETGGYGYAAYFNLWGPGTLVTVSS
VL: AIEMTQSPPSLSASVGETVRIRCLASEDIASSVSWYQQKPGKPPTLLIYGASNLESGVPPRFTGSGSGTDYTLTIGGVQAEDAATYYCLGGYSYSSTGTAFGAGTKVEIK
B2: hu.14H11c.L2H11-hIgG1 (antibody, V domains shown)
VH: EQQLVESGGGLIQPGGSLRLSCAASGFSFSSSYYMSWVRQAPGKGLEWVSSIYAGSSGAPYYAGWAKGRFTISRDNSKNTLYLQMNSLRAEDTAVYYCAREGFAETGGYGYAAYFNLWGPGTLVTVSS
VL: DIQMTQSPSSLSASVGDRVTITCLASEDIASSVSWYQQKPGKAPKLLIYGASNLESGVPSRFSGSGSGTDYTLTISSLQPEDFATYYCLGGYSYSSTGTAFGGGTKVEIK
B3: hu.10C5VY.hu14H11c.L2H11 WT (bispecific antibody, human IgG1, kappa, N297G)
heavy 1: not shown
light 1: DIQMTQSPSSLSASVGDRVTITCLASEDIASSVSWYQKKPGKAPKLLIYGASNLESGVPSRFSGSGSGTDYTLTISSLQPEDFATYYCLGGYSYSSTGTAFGGGTKVEIKRTVAAPSVFIFPPSDEQLKSGTASVECLLNNFYPREAKVQWKVDNALQSGNSQESVTEQDSKDSTYSLSSTLTLSKADYEKHKVYACEVTHQGLSSPVTKSFNRGEC
heavy 2: EVQLVESGGGLVQPGGSLRLSCAASGFSLSSYGVTWVRKAPGKGLEWIGYITSVYGVSYYASWAKSRSTISRDTSKNTVYLQMGSLRAEDMAVYYCARENPDYGYAYDAWGQGTTVTVSSASTKGPSVFPLAPSSKSTSGGTAALGCLVKDYFPEPVTVSWNSGALTSGVHTFPAVLQSSGLYSLESVVTVPSSSLGTQTYICNVNHKPSNTKVDKKVEPKSCDKTHTCPPCPAPELLGGPSVFLFPPKPKDTLMISRTPEVTCVVVDVSHEDPEVKFNWYVDGVEVHNAKTKPREEQYGSTYRVVSVLTVLHQDWLNGKEYKCKVSNKALPAPIEKTISKAKGQPREPQVYTLPPSREEMTKNQVSLSCAVKGFYPSDIAVEWESNGQPENNYKTTPPVLDSDGSFFLVSKLTVDKSRWQQGNVFSCSVMHEALHNHYTQKSLSLSPGK
light 2: AIRMTQSPSSFSASTGDRVTITCQASESISNELSWYQEKPGKAPKLLIYYASTLASGVPSRFSGSGSGTDFTLTISSLQPEDFATYYCAQGYGSSGVENVFGGGTKVEIKRTVAAPSVFIFPPSDEQLKSGTASVKCLLNNFYPREAKVQWKVDNALQSGNSQESVTEQDSKDSTYSLSSTLTLSKADYEKHKVYACEVTHQGLSSPVTKSFNRGEC
B4: hu.10C5VY.hu14H11c.L2H11 LS (bispecific antibody, human IgG1, kappa, N297G)
heavy 1: EQQLVESGGGLIQPGGSLRLSCAASGFSFSSSYYMSWVREAPGKGLEWVSSIYAGSSGAPYYAGWAKGRFTISRDNSKNTLYLQMNSLRAEDTAVYYCAREGFAETGGYGYAAYFNLWGPGTLVTVSSASTKGPSVFPLAPSSKSTSGGTAALGCLVKDYFPEPVTVSWNSGALTSGVHTFPAVLQSSGLYSLKSVVTVPSSSLGTQTYICNVNHKPSNTKVDKKVEPKSCDKTHTCPPCPAPELLGGPSVFLFPPKPKDTLMISRTPEVTCVVVDVSHEDPEVKFNWYVDGVEVHNAKTKPREEQYGSTYRVVSVLTVLHQDWLNGKEYKCKVSNKALPAPIEKTISKAKGQPREPQVYTLPPSREEMTKNQVSLWCLVKGFYPSDIAVEWESNGQPENNYKTTPPVLDSDGSFFLYSKLTVDKSRWQQGNVFSCSVLHEALHSHYTQKSLSLSPGK
light 1: B3 light 1
heavy 2: B3 heavy 2 with M431L, N437S
light 2: B3 light 2
B5: hu10C5VY (antibody, V domains shown)
VH: EVQLVESGGGLVQPGGSLRLSCAASGFSLSSYGVTWVRQAPGKGLEWIGYITSVYGVSYYASWAKSRSTISRDTSKNTVYLQMGSLRAEDMAVYYCARENPDYGYAYDAWGQGTTVTVSS
VL: AIRMTQSPSSFSASTGDRVTITCQASESISNELSWYQQKPGKAPKLLIYYASTLASGVPSRFSGSGSGTDFTLTISSLQPEDFATYYCAQGYGSSGVENVFGGGTKVEIK

Numbering of substitutions follows the chain as printed. Some results are limits rather than exact numbers.

This is an account of results in US20240150491A1 (Genentech, published 2024).

One assay deals with T1, cyno KLK7 (SEQ ID NO: 6 plus a C-terminal FLAG tag) (cynomolgus monkey, UniProt P49862 30-253 (human entry)). As to the kind of experiment: cell-based or functional assay.
T1 sequence (P49862 other isoform, or with tags, fused parts or gaps): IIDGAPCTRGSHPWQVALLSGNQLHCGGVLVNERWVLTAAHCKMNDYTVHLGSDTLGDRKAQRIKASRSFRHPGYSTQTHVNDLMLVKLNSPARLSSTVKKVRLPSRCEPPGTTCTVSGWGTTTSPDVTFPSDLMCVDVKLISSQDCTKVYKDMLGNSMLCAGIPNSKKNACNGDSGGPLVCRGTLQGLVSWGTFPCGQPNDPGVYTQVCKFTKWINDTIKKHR
B1: the “IC50, inhibition of KLK7 cleavage of MCA peptide substrate (bivalency not accounted for)” value turned out to be 0.15 nM.

The target of another assay is T2, human KLK7 (SEQ ID NO: 4 plus a C-terminal FLAG tag) (human, UniProt P49862 30-253). The experiment in a line: cell-based or functional assay.
T2 sequence (P49862 30-253): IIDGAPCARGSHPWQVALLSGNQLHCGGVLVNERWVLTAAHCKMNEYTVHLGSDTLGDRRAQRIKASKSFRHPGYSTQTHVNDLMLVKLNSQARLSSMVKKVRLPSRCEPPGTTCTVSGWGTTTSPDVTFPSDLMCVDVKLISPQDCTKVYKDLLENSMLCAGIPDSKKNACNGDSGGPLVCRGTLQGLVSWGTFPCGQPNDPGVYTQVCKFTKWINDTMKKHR
Take B1: the “IC50, inhibition of KLK7 cleavage of MCA peptide substrate (bivalency not accounted for)” value was 0.11 nM.

The next assay has as its target T1, cyno KLK7 (SEQ ID NO: 6 plus a …). As to the kind of experiment: cell-based or functional assay. This is another data set of the same source.
Take B2: the “IC50, inhibition of KLK7 cleavage of Mca-RPKPVE-Nval-WRK(Dnp) (bivalency corrected)” value was 0.29 nM.
As to B3, the “IC50, inhibition of KLK7 cleavage of Mca-RPKPVE-Nval-WRK(Dnp) (bivalency corrected)” value worked out at 0.37 nM.
Still for that read-out and setting: to B4 belongs 0.36 nM.
The same measure, in the same setting: to B5 belongs over 10 nM.

A further assay has as its target T3, cynomolgus monkey KLK5 (cynomolgus monkey, UniProt Q9Y337 67-293 (human entry)).
T3 chain: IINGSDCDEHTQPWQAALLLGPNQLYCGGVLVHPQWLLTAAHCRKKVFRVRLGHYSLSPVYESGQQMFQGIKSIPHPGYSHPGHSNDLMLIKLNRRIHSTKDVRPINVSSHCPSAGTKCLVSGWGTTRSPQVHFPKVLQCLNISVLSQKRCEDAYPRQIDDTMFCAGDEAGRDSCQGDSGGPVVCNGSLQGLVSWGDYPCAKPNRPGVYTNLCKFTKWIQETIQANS
The experiment in a line: cell-based or functional assay.
Take B2: the “IC50, inhibition of KLK5 cleavage of Boc-Val-Pro-Arg-AMC (bivalency corrected)” value was over 10 nM.
On the same count and under the same terms, to B3 belongs 0.73 nM; to B4, 0.58 nM.
The same measure, in the same setting: to B5 belongs 0.56 nM.

The next assay deals with T4, human KLK5 (human, UniProt Q9Y337 67-293).
T4 sequence: T3 chain with E9M, G21R, G29A, I71V, H98R, S99P, R128K, E169K, K202R
As to the kind of experiment: cell-based or functional assay.
With B2, the “IC50, inhibition of KLK5 cleavage of Boc-Val-Pro-Arg-AMC (bivalency corrected)” value is over 10 nM.
As to B3, the “IC50, inhibition of KLK5 cleavage of Boc-Val-Pro-Arg-AMC (bivalency corrected)” value came out at 0.67 nM.
As for B4, the “IC50, inhibition of KLK5 cleavage of Boc-Val-Pro-Arg-AMC (bivalency corrected)” value was 0.54 nM.
On the same count and under the same terms, to B5 belongs 0.46 nM.

The next assay has as its target T2, human KLK7 (SEQ ID NO: 4 plus a …). As to the kind of experiment: cell-based or functional assay. The source holds these as a separate data set.
For the molecule B2, the “IC50, inhibition of KLK7 cleavage of Mca-RPKPVE-Nval-WRK(Dnp) (bivalency corrected)” value turned out to be 0.29 nM.
On the same count and under the same terms, to B3 belongs 0.37 nM.
On to B4, for which the “IC50, inhibition of KLK7 cleavage of Mca-RPKPVE-Nval-WRK(Dnp) (bivalency corrected)” value came out at 0.34 nM.
On the same count and under the same terms, to B5 belongs over 10 nM.
